Data reported in PMC11162790.

System: ArsR-P (phosphorylated His6-ArsR) (Helicobacter pylori SMI109)
Assay: EMSA
Conditions: Buffer F: 50 mM Tris-acetate pH 7.5, 100 mM K-glutamate, 20 mM Mg-acetate, 5% glycerol, 0.1 ug poly dI-dC, 25 C, 30 min; EMSA 5-7 nM DNA, footprint 25 nM DNA

PsabA SMI109 (T13, wt) 407 bp gave a K half of 1350 nM.
